Data reported in patent US20260207704A1, “STAPLED PEPTIDES AND METHODS THEREOF” (priority 2022, published 2026).
*1 amine or outer side, *2 acyl side, *3 side chain or, on linkers, in order; H or OH if unused. Bridges are numbered along the chain shown (N, C = ends). Primed or numbered codes have the meaning given here. [ ]: non-standard residue; d: D form. PyrS2(6) = (S)-3-amino-1-((pent-4-en-1-yloxy)carbonyl)pyrrolidine-3-carboxylic acid, stapled with another olefin-containing amino acid residue through the olefin group, O=C(OCCCC=[*:3])N1CC[C@@](N[*:1])(C(=O)[*:2])C1; B5(4) = 2-amino-2-(pent-4-en-1-yl)hept-6-enoic acid, stapled through each of its two olefin groups with other olefin-containing amino acid residues, O=C(C(CCCC=[*:3])(CCCC=[*:4])N[*:1])[*:2]; PyrS2″ = (S)-3-amino-1-((pent-4-en-1-yloxy)carbonyl)pyrrolidine-3-carboxylic acid (olefin stapling residue), C=CCCCOC(=O)N1CC[C@@](N[*:1])(C(=O)[*:2])C1; PyrS2(3) = (S)-3-amino-1-((pent-4-en-1-yloxy)carbonyl)pyrrolidine-3-carboxylic acid, olefin residue, C=CCCCOC(=O)N1CC[C@@](N[*:1])(C(=O)[*:2])C1; PyrS2(5) = (S)-3-amino-1-((pent-4-en-1-yloxy)carbonyl)pyrrolidine-3-carboxylic acid, C=CCCCOC(=O)N1CC[C@@](N[*:1])(C(=O)[*:2])C1; B5″ = 2-amino-2-(pent-4-en-1-yl)hept-6-enoic acid (bis-olefin stapling residue), C=CCCCC(CCCC=C)(N[*:1])C(=O)[*:2]; B5(5) = 2-amino-2-(pent-4-en-1-yl)hept-6-enoic acid (two olefin arms), C=CCCCC(CCCC=C)(N[*:1])C(=O)[*:2]; B5(3) = 2-amino-2-(pent-4-en-1-yl)hept-6-enoic acid, two olefin arms, C=CCCCC(CCCC=C)(N[*:1])C(=O)[*:2]; 2F3MeF(3) = aromatic amino acid residue, Cc1cccc(C[C@H](N[*:1])C(=O)[*:2])c1F; 2F3MeF″ = aromatic residue, Cc1cccc(C[C@H](N[*:1])C(=O)[*:2])c1F; Phe(3-COOH) = N[C@@H](Cc1cccc(C(=O)O)c1)C(=O)O; 2F3MeF = Cc1cccc(C[C@H](N[*:1])C(=O)[*:2])c1F; Bta = N[C@@H](Cc1csc2ccccc12)C(=O)O; αAllylPro = C=CC[C@@]1(C(=O)O)CCCN1; BztA = aromatic amino acid residue; 4mampiperidine = not defined here; tBuAla = CC(C)(C)C[C@H](N)C(=O)O; 3Thi = N[C@@H](Cc1ccsc1)C(=O)O; Cha = N[C@@H](CC1CCCCC1)C(=O)O; TriAzLys(3) = not defined here; hSer = N[C@@H](CCO)C(=O)O; BztA″ = aromatic residue; Orn = NCCC[C@H](N)C(=O)O; TfeGA = not defined here; AsnR = not defined here; GlnR = not defined here; sAla = not defined here; PL3 = not defined here; B5 = not defined here

How the values were obtained:
beta-catenin (human) [1] = experiment: fluorescence polarization; bin >200 nM
beta-catenin (human) [2] = experiment: cell-based or functional assay
beta-catenin (human) [3] = experiment: fluorescence polarization; bin >50 nM

beta-catenin (human), sequence (B6V8E6 146-665 limits assumed): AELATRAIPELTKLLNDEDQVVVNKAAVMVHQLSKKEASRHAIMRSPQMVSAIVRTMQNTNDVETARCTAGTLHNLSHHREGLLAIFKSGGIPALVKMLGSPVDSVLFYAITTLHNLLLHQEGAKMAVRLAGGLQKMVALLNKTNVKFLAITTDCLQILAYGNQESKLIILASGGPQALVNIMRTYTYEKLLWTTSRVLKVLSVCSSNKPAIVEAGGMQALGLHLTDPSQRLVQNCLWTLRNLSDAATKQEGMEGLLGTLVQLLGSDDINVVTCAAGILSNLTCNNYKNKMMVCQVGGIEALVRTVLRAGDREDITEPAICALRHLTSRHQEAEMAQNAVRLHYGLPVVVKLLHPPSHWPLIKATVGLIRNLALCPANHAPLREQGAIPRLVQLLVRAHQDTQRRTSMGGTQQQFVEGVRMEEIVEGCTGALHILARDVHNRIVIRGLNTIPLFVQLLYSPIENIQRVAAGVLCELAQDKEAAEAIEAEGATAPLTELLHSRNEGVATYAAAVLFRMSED

IC50 (beta-catenin (human) [1]) [nM] | NanoBRET Abs IC50 (beta-catenin (human) [2]) [nM] | IC50 (beta-catenin (human) [3]) [nM] | Binder
< 750 |  |  | Ac-[αAllylPro]D[tBuAla][B5(5)]D[Phe(3-COOH)]AAF[AsnR][PyrS2(5)][3Thi][Bta][Orn]-NH2 (bridge 10-14; reading uncertain; also: PL3/B5/PyrS2 staple links not placed, printed as Ac-PL3-Asp-Npg-B5-Asp-3COOHF-Ala-Ala-Phe-AsnR*3-PyrS2-3Thi-BztA-Orn*3-NH2) [I-41]
< 750 |  |  | Ac-[αAllylPro]D[tBuAla][B5(4)]D[Phe(3-COOH)][GlnR](4aminopiperidine)AFL[PyrS2″][2F3MeF(3)][BztA][GlnR]A-NH2 (staple 1-4 (inferred); not fully specified (bridges); printed as Ac-PL3-Asp-Npg-B5-Asp-3COOHF-[4aminopiperidine]GlnR-Ala-Phe-Leu-PyrS2-2F3MeF-BztA-GlnR-Ala-NH2; reading uncertain) [I-94]
 | > 10000 | < 200 | Ac-[αAllylPro]D[tBuAla][B5(3)]D[Phe(3-COOH)]AAFK[PyrS2(3)][2F3MeF″][Bta][AsnR]A-NH2 (bridge 10-14; not fully specified (bridges); printed as Ac-PL3-Asp-Npg-B5-Asp-3COOHF-Ala-Ala-Phe-Lys*3-PyrS2-2F3MeF-BztA-AsnR*3-Ala-NH2; reading uncertain) [I-58]
 | > 10000 | < 200 | Ac-[αAllylPro]D[tBuAla][B5(3)]D[Phe(3-COOH)]AAFK[PyrS2(3)][2F3MeF″][Bta][AsnR]A-NH2 (bridge 10-14; not fully specified (bridges); printed as Ac-PL3-Asp-Npg-B5-Asp-3COOHF-Ala-Ala-Phe-Lys*3-PyrS2-2F3MeF-BztA-AsnR*3-Ala-NH2; reading uncertain) [I-59]
< 750 |  |  | Ac-[αAllylPro]D[tBuAla][B5(5)]D[Phe(3-COOH)]AAF[AsnR][PyrS2(5)][3Thi][Bta]K-NH2 (bridge 10-14; not fully specified (bridges); printed as Ac-PL3-Asp-Npg-B5-Asp-3COOHF-Ala-Ala-Phe-AsnR*3-PyrS2-3Thi-BztA-Lys*3-NH2; reading uncertain) [I-36]
< 750 |  |  | Ac-[αAllylPro]D[tBuAla][B5(4)]D[Phe(3-COOH)][GlnR]AFL[PyrS2″][2F3MeF(3)][BztA][GlnR](4mampiperidine)A-NH2 (staple 1-4 (inferred); not fully specified (bridges); printed as Ac-PL3-Asp-Npg-B5-Asp-3COOHF-GlnR-Ala-Phe-Leu-PyrS2-2F3MeF-BztA-[4mampiperidine]GlnR-Ala-NH2; reading uncertain) [I-96]
< 750 |  |  | Ac-[PL3]D[tBuAla][B5][hSer][Phe(3-COOH)]QAFK[PyrS2″][3Thi][BztA][GlnR]A-NH2 (staple 1-4 (inferred); bridge 10-14; not fully specified (residue 10, bridges); printed as Ac-PL3-Asp-Npg-B5-Hse-3COOHF-Gln-Ala-Phe-Lys*3-PyrS2-3Thi-BztA-GlnR*3-Ala-NH2; reading uncertain; also: Lys10 and GlnR14 marked *3) [I-91]
< 750 |  |  | Ac-[αAllylPro]D[tBuAla][B5″]N[TfeGA]AAFK[PyrS2″][2F3MeF][Bta][GlnR]A-NH2 (bridge 10-14; not fully specified (bridges); reading uncertain; also: Lys*3 and GlnR*3 marked *3) [I-117]
< 750 |  |  | Ac-[αAllylPro]D[tBuAla][B5(4)]D[Phe(3-COOH)][GlnR]AFL[PyrS2″][2F3MeF(3)][BztA][GlnR](4aminopiperidine)A-NH2 (staple 1-4 (inferred); not fully specified (bridges); printed as Ac-PL3-Asp-Npg-B5-Asp-3COOHF-GlnR-Ala-Phe-Leu-PyrS2-2F3MeF-BztA-[4aminopiperidine]GlnR-Ala-NH2; reading uncertain) [I-93]
< 750 |  |  | Ac-[αAllylPro]D[tBuAla][B5(4)]D[Phe(3-COOH)][sAla]AF[TriAzLys(3)][PyrS2(6)][3Thi][Bta]Q-NH2 (triazole 7-10; not fully specified (bridges); printed as Ac-PL3-Asp-Npg-B5-Asp-3COOHF-sAla*3-Ala-Phe-TriAzLys*3-PyrS2-3Thi-BztA-Gln-NH2; reading uncertain) [I-27]
 | > 10000 | < 200 | Ac-[αAllylPro]D[tBuAla][B5]D[Phe(3-COOH)][GlnR](29N2spiroundecane)AFL[PyrS2″][2F3MeF″][BztA″][GlnR]A-NH2 (reading uncertain; also: staple links not given here, printed as Ac-PL3-Asp-Npg-B5-Asp-3COOHF-[29N2spiroundecane]GlnR-Ala-Phe-Leu-PyrS2-2F3MeF-BztA-GlnR-Ala-NH2) [I-132]
< 750 |  |  | Ac-[αAllylPro]N[Cha][B5″]DQ[hSer]AF[GlnR][PyrS2″]F[Bta]K-NH2 (bridge 10-14; reading uncertain; also: PL3-B5 and PyrS2 links not placed, printed as Ac-PL3-Asn-Cha-B5-Asp-Gln-Hse-Ala-Phe-GlnR*3-PyrS2-Phe-BztA-Lys*3-NH2) [I-148]
< 750 |  |  | Ac-[PL3]D[tBuAla][B5][hSer][Phe(3-COOH)]AAFK[PyrS2″][3Thi][BztA][GlnR]A-NH2 (staple 1-4 (inferred); bridge 10-14; not fully specified (residue 10, bridges); printed as Ac-PL3-Asp-Npg-B5-Hse-3COOHF-Ala-Ala-Phe-Lys*3-PyrS2-3Thi-BztA-GlnR*3-Ala-NH2; reading uncertain) [I-83]
 | > 10000 | < 200 | Ac-[αAllylPro]D[tBuAla][B5]D[Phe(3-COOH)][GlnR]AFL[PyrS2″][2F3MeF″][BztA″][(39N2spiroundecane)GlnR]A-NH2 (reading uncertain; also: staple links not given here, printed as Ac-PL3-Asp-Npg-B5-Asp-3COOHF-GlnR-Ala-Phe-Leu-PyrS2-2F3MeF-BztA-[39N2spiroundecane]GlnR-Ala-NH2) [I-130]
